The values below come from the supplement of paper PMC10567573.

± gives the standard deviation.

A short description of this series: protein stability index of a GFP-peptide fusion (GPS, HEK-293T) (PSI 1-6); higher = more stable. The note with it: c terminus: a fixed tail appended.
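Note: 24-mer peptide tiles fused after GFP, lentivirally expressed, FACS-sorted into six equal bins by GFP/DsRed ratio, decoded by Illumina sequencing, PSI is the read-weighted mean bin number.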

SLVWGMVCGQNWGIVEAMVVCRQL [LOXL2]: the protein stability index is, setting by setting: (treatment: DMSO) 2.46 ± 0.82; (treatment: MLN4924 1 uM, 8 h) 3.07 ± 0.36.

As for HLDHYYQEELPALLKALVSELSEH [FCHSD1], the protein stability index is, setting by setting: (treatment: DMSO) 2.3 ± 0.079; (treatment: MLN4924 1 uM, 8 h) 2.15 ± 0.37.

For the sequence AAAHWYGGAEMRTQHWPIRLDGQQ [MYORG], the protein stability index reads like this: (treatment: DMSO) 2.86 ± 0.15; (treatment: MLN4924 1 uM, 8 h) 2.79 ± 0.14.

In the case of ASRQKTSLGIELHCNVSNILHMNG [ZNF396], the protein stability index turned out to be 1.97 ± 0.23 (treatment: DMSO) and 2.12 ± 0.14 (treatment: MLN4924 1 uM, 8 h).

The sequence ARICRLLKHPNIVRLHDSISEEGH [CAMK2A] had a protein stability index (treatment: DMSO) of 2.85 ± 0.17 and a protein stability index (treatment: MLN4924 1 uM, 8 h) of 2.84 ± 0.33.

On to LAIFKSGGIPALVKMLGSPVDSVL [CTNNB1], for which the protein stability index runs as follows: (treatment: DMSO) 2.28 ± 0.36; (treatment: MLN4924 1 uM, 8 h) 2.14 ± 0.35.

Turning to KEDKIMLDDRKNEEDGGADEHEHP [MIA2], the protein stability index runs as follows: (treatment: DMSO) 5.52 ± 0.063; (treatment: MLN4924 1 uM, 8 h) 5.55 ± 0.19.

With VMDYLPISSTSTKRTYWPDLDAKI [PLD5], the protein stability index is, setting by setting: (treatment: DMSO) 2.77 ± 0.19; (treatment: MLN4924 1 uM, 8 h) 2.85 ± 0.1.

In the case of LGLNAAFWFFALTSLRLVFLLAFG [RETREG3], the protein stability index is, setting by setting: (treatment: DMSO) 3.06 ± 0.41; (treatment: MLN4924 1 uM, 8 h) 3.35 ± 1.4.

As for LEIELQSQLSMKAGLENTVAETEC [KRT13], the protein stability index was 5.02 ± 0.43 (treatment: DMSO) and 5.03 ± 0.11 (treatment: MLN4924 1 uM, 8 h).

Turning to GATVGRKSRRSRSESETSTMAAKK [C18orf25], the protein stability index is 5.23 ± 0.31 (treatment: DMSO) and 5.48 ± 0.27 (treatment: MLN4924 1 uM, 8 h).

For the sequence RGENLEHLRNKTEDLEATSEHFKT [VAMP8], the protein stability index by setting is: (treatment: DMSO) 5.43 ± 0.35; (treatment: MLN4924 1 uM, 8 h) 5.29 ± 0.12.

On to NSAIRFLRKYSFDGLDLDWEYPGS [CHIT1], for which the protein stability index is 2.38 ± 0.28 (treatment: DMSO) and 2.36 ± 0.32 (treatment: MLN4924 1 uM, 8 h).

Regarding WVNDPQRMDKRTLALLVLAHSSDV [GOLPH3L], the protein stability index is, setting by setting: (treatment: DMSO) 2.19 ± 0.3; (treatment: MLN4924 1 uM, 8 h) 2.18 ± 0.2.

Turning to GKRTPRGRRGWKKFYAVLKGTILY [PSD2], the protein stability index (treatment: DMSO) came to 2.97 ± 1.6 and the protein stability index (treatment: MLN4924 1 uM, 8 h) stood at 2.61 ± 0.73.

Regarding ASDIMEPNLTYVYPHTRIQSLVSI [CLCN6], the protein stability index is, setting by setting: (treatment: DMSO) 2.38 ± 0.49; (treatment: MLN4924 1 uM, 8 h) 2.34 ± 0.38.

Take EGVDIKNGTEDLPYAMKPIDYYTE [NSDHL]: the protein stability index is, setting by setting: (treatment: DMSO) 4.72 ± 0.25; (treatment: MLN4924 1 uM, 8 h) 4.76 ± 0.27.

Turning to TYGRRAKGHNTPKDIAHFWELGGG [DYNC2LI1], the protein stability index was 2.84 ± 0.11 (treatment: DMSO) and 3.07 ± 0.18 (treatment: MLN4924 1 uM, 8 h).

Consider TIKHPGGAGAEESELQAYIAQCQD [MCOLN1], for which the protein stability index came to 5.27 ± 0.2 (treatment: DMSO) and 5.23 ± 0.31 (treatment: MLN4924 1 uM, 8 h).

Take TSVLATLVVFAVLGFKANIMNEKC [SLC6A17]: the protein stability index reads like this: (treatment: DMSO) 2.66 ± 0.12; (treatment: MLN4924 1 uM, 8 h) 3.31 ± 0.11.

For the sequence YDIAKHLTYENVERWLKELRDHAD [RAB11A], the protein stability index is, setting by setting: (treatment: DMSO) 2.66 ± 0.36; (treatment: MLN4924 1 uM, 8 h) 2.77 ± 0.23.

As for EASNFQMDRKTRFIIHGFIDKGDE [PNLIPRP1], the protein stability index reads like this: (treatment: DMSO) 3.26 ± 0.21; (treatment: MLN4924 1 uM, 8 h) 3.27 ± 0.27.

For the sequence STIVVMLTKLREMGREKCHQYWPA [PTPRD], the protein stability index stood at 2.55 ± 0.22 (treatment: DMSO) and 2.63 ± 0.44 (treatment: MLN4924 1 uM, 8 h).

As for QEAKLLHWNGRHKPWDFPSVHNDL [GLT8D2], the protein stability index amounted to 3.11 ± 0.19 (treatment: DMSO) and 2.9 ± 0.28 (treatment: MLN4924 1 uM, 8 h).

Regarding GQPAPPQLLLGRLFRWPDLQHAVE [SMAD6], the protein stability index by setting is: (treatment: DMSO) 2.63 ± 0.1; (treatment: MLN4924 1 uM, 8 h) 2.82 ± 0.39.

For the sequence EPLMTNKLSETFLQIYQYVPKDQR [DLC1], the protein stability index is, setting by setting: (treatment: DMSO) 3.05 ± 0.33; (treatment: MLN4924 1 uM, 8 h) 3.47 ± 0.47.

Consider AIDQYRVCQEVLERSRDVVDEVSV [RHOBTB1], for which the protein stability index was 4.61 ± 0.21 (treatment: DMSO) and 4.32 ± 0.15 (treatment: MLN4924 1 uM, 8 h).

For the sequence LLERQVEMTPEKFSVLMEKLCKKG [FANCE], the protein stability index came out at 3.03 ± 0.26 (treatment: DMSO) and 3.36 ± 0.19 (treatment: MLN4924 1 uM, 8 h).

As for VLENLEDSCVLTGPDDSLWDKHAC [TRIB3], the protein stability index runs as follows: (treatment: DMSO) 3.69 ± 0.16; (treatment: MLN4924 1 uM, 8 h) 3.87 ± 0.26.

As to SIRILDELVLPFQELQIDDNEYAY [HNF4A], the protein stability index (treatment: DMSO) came out at 3.46 ± 0.26 and the protein stability index (treatment: MLN4924 1 uM, 8 h) was found to be 3.44 ± 0.26.

On to NYSSSQDALISVSYTIITPLFNPM [OR10K2], for which the protein stability index by setting is: (treatment: DMSO) 3.07 ± 0.46; (treatment: MLN4924 1 uM, 8 h) 2.92 ± 0.33.

With GRTHSACDALRTLAEARRLFPGRV [RSAD1], the protein stability index is, setting by setting: (treatment: DMSO) 2.99 ± 0.29; (treatment: MLN4924 1 uM, 8 h) 3.44 ± 0.29.

Turning to YRAALRSCSLVLEHQPDNIKALFR [FKBP8], the protein stability index (treatment: DMSO) amounted to 2.17 ± 0.25 and the protein stability index (treatment: MLN4924 1 uM, 8 h) came to 2.27 ± 0.037.

Consider HCGELKRRLGLSTLGELKQNLSRS [TPD52L2], for which the protein stability index runs as follows: (treatment: DMSO) 3.04 ± 0.22; (treatment: MLN4924 1 uM, 8 h) 3.22 ± 0.44.

Turning to SKQSPPMASSPIQPRKGGADWLGL [FBF1], the protein stability index was 3.23 ± 0.47 (treatment: DMSO) and 3.48 ± 0.42 (treatment: MLN4924 1 uM, 8 h).

CGPAEERVLLTGLHAVADIHCENC [YPEL3]: the protein stability index runs as follows: (treatment: DMSO) 3.25 ± 0.33; (treatment: MLN4924 1 uM, 8 h) 3.58 ± 0.67.
